Measurements from patent publication US20250304700A1, “ANTI-BLOOD DENDRITIC CELL ANTIGEN 2 ANTIBODIES AND USES THEREOF” (Biogen MA Inc., priority 2012, published 2025).

Test system: CD62L on the surface of human pDCs
Assay: CD62L surface expression on pDCs by flow cytometry
Format: cell-based
Conditions: PBMC pre-treated 30 minutes, then 10 μg/mL BIIB059 for 1 hour
Procedure: The MFI of CD62L was determined by gating on pDCs as defined by CD14−, CD20−, HLA-DR+ and CD123+.
Metalloproteinase are known to induce CD62L shedding from the surface of immune cells. […] The surface expression of CD62L was assayed by flow cytometry. GM6001 inhibited the BIIB059-mediated down-modulation CD62L in a dose dependent manner (FIG. 45).

Molecule	BIIB059-mediated down-modulation of CD62L
CNC(=O)[C@H](Cc1c[nH]c2ccccc12)NC(=O)[C@@H](CC(=O)NO)CC(C)C [GM6001, reference compound]	inhibited

Target: T1, human BDCA2 ectodomain (Homo sapiens, UniProt Q8WTT0)
T1 construct: huBDCA2 ectodomain: residues 257-425 above (underlined); murine IgG2a Fc (with G4S linker) (N, cleaved yes); made in house
T1 sequence (Q8WTT0 45-213): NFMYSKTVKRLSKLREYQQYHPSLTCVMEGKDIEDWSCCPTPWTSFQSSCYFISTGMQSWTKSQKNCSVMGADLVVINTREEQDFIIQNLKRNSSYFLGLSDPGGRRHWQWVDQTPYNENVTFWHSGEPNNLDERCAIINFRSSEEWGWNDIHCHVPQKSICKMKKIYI
Assay: Octet binding of mAbs on anti-human Fc tips to monomeric huBDCA2
Conditions: Example 5, conditioned medium, hu24F4 variants
Procedure: Site-directed mutagenesis was performed using Agilent's QuikChange II mutagenesis kit following the manufacturer's recommended protocol. The C95S variant was constructed using the mutagenic primer 5′ GCAACCTATTACTGTCAACAAAGTAATGAGGATCCTCGGAC 3′ (SEQ ID NO: 38) and its reverse complement, which introduced a new HincII site, producing plasmid pEAG2678. The C95T variant was constructed using the mutagenic primer 5′ CAACCTATTACTGTCAGCAAACTAATGAAGATCCTCGGACGTTCG 3′ (SEQ ID NO: 39) and its reverse complement, which removed a BamHI site, producing plasmid pEAG2679. Mutated plasmids were identified by screening for the introduced restriction site changes. The full-length light chain cDNA sequences in the resultant plasmids were confirmed by DNA sequencing. Wildtype ch24F4 and the C95S and C95T variant mAbs were expressed transiently in 293E cells by co-transfection of pYL672 and pYL671, pEAG2678 or pEAG2679. Conditioned medium was harvested at 2 days post-transfection. Titers (assayed by Octet on anti-human Fc tips) of both variants were similar to that of wildtype ch24F4, and Western blots of nonreducing SDS-PAGE indicated no gross aggregation or obvious clipping relative to wildtype ch24F4 mAb. […] Conditioned medium containing ch24F4 and the C95 variant mAbs was assayed by Octet for binding to human BDCA2 ectodomain. Antibodies from conditioned medium from transiently transfected cells were bound to anti-human Fc tips, then monomeric huBDCA2 was flowed over the Octet tips, to examine binding and dissociation.
Conditioned medium containing ch24F4 and all hu24F4 variant mAbs was assayed by Octet for binding to human BDCA2 ectodomain. The monomeric huBDCA2 ectodomain was prepared by proteolytic cleavage from the purified muIgG2a Fc-huBDCA2 fusion protein (relevant plasmid: pEAG2423). Antibodies from conditioned medium from transiently transfected cells were bound to anti-human Fc tips, and then monomeric huBDCA2 was flowed over the Octet tips, to examine binding and dissociation.
To explore the possibility of enhancing hu24F4 affinity by substitution at the position of the 24F4 version L1 CDR L3 unpaired cysteine (C95S in hu24F4 light chain expression vector pYL740), a number of version L1 variants were constructed by site-directed mutagenesis. Backmutation to the unpaired cysteine, i.e., S95C, was constructed by site-directed mutagenesis producing plasmid pYL749. Variants S95T, S95A, and S95V were constructed by site-directed mutagenesis producing plasmids pYL750, pYL751, and pYL752, respectively. The full-length light chain cDNA sequences in the resultant plasmids were confirmed by DNA sequencing. C95 variant hu24F4 mAbs were expressed transiently in 293E cells by co-transfection of hu24F4 H4 heavy chain pYL746 or hu24F4 H5 heavy chain pYL747 with hu24F4 L1 variant light chains C95S pYL740, S95C pYL749, S95T pYL750, S95A pYL751 or S95V pYL752 plasmids. Conditioned medium was harvested at 2 days post-transfection. Titers (assayed by Octet on anti-human Fc tips) of all variants were similar, and Western blots of nonreducing SDS-PAGE indicated no gross aggregation or obvious clipping. Conditioned medium containing the C95 variant mAbs was assayed by Octet for binding to human BDCA2 ectodomain. Antibodies from conditioned medium from transiently transfected cells were bound to anti-human Fc tips, then monomeric huBDCA2 was flowed over the Octet tips, to examine binding and dissociation. C95A variants had the slowest off-rates.

Molecule	kdis [s⁻¹]	kon [M⁻¹ s⁻¹]
H0/L1: hu24F4 variant, heavy chain version H0 (SEQ ID NO: 40), light chain version L1 (SEQ ID NO: 56) (antibody, V domains shown) VH: EVQLVESGGGLVKPGGSLRLSCAASGFTFSTYTMSWVRQAPGKGLEWVSAISGSGGSTYYADSVKGRFTISRDNAKNSLYLQMNSLRAEDTAVYYCARDIYYNYGAWFAYWGQGTLVTVSS VL: DIQLTQSPSSLSASVGDRVTITCKASQSVDYDGDSYMNWYQQKPGKAPKLLIYAASTLESGVPSRFSGSGSGTDFTLTISSLQPEDFATYYCQQSNEDPRTFGQGTKVEIK	9.5e-06	100000
H1/L1: hu24F4 variant, heavy chain version H1 (SEQ ID NO: 42), light chain version L1 (antibody, V domains shown) VH: EVQLVESGGGLVKPGGSLRLSCAASGFTFSTYTMSWVRQAPGKGLEWVSTISPGDSFGYYPDSVKGRFTISRDNAKNSLYLQMNSLRAEDTAVYYCARDIYYNYGAWFAYWGQGTLVTVSS VL: DIQLTQSPSSLSASVGDRVTITCKASQSVDYDGDSYMNWYQQKPGKAPKLLIYAASTLESGVPSRFSGSGSGTDFTLTISSLQPEDFATYYCQQSNEDPRTFGQGTKVEIK	5.03e-06	100000

Now from value to molecule:

kdis [s⁻¹]	kon [M⁻¹ s⁻¹]	Molecule
0.00586	452000	H3/L1: hu24F4 variant, heavy chain version H3 (SEQ ID NO: 46), light chain version L1 (antibody, V domains shown) VH: EVQLVESGGGLVKPGGSLRLSCAASGFTFSTYTMSWVRQAPGKGLEWVSTISPGDSFGYYYPDSVQGRFTISRDNAKNSLYLQMNSLRAEDTAVYYCARDIYYNYGAWFAYWGQGTLVTVSS VL: DIQLTQSPSSLSASVGDRVTITCKASQSVDYDGDSYMNWYQQKPGKAPKLLIYAASTLESGVPSRFSGSGSGTDFTLTISSLQPEDFATYYCQQSNEDPRTFGQGTKVEIK
0.00137	273000	H6/L0: hu24F4 variant, heavy chain version H6 (SEQ ID NO: 52), light chain version L0 (SEQ ID NO: 54) (antibody, V domains shown) VH: DVQLVESGGGLVKPGGSLRLSCAASGFTFSTYTMSWVRQAPGKGLEWVATISGGNNYGYSYPDSVKGRFTISRDNAKNSLYLQMNSLRAEDTAVYYCTRDIYYNYGAWFAYWGQGTLVTVSS VL: AIQLTQSPSSLSASVGDRVTITCKASQSVDYDGDSYMNWYQQKPGKAPKLLIYAASTLESGVPSRFSGSGSGTDFTLTISSLQPEDFATYYCQQSNEDPRTFGQGTKVEIK
3.35e-06	100000	H2/L1: hu24F4 variant, heavy chain version H2 (SEQ ID NO: 44), light chain version L1 (antibody, V domains shown) VH: EVQLVESGGGLVKPGGSLRLSCAASGFTFSTYTMSWVRQAPGKGLEWVSTISPGDSSTIYYADSVKGRFTISRDNAKNSLYLQMNSLRAEDTAVYYCARDIYYNYGAWFAYWGQGTLVTVSS VL: DIQLTQSPSSLSASVGDRVTITCKASQSVDYDGDSYMNWYQQKPGKAPKLLIYAASTLESGVPSRFSGSGSGTDFTLTISSLQPEDFATYYCQQSNEDPRTFGQGTKVEIK

Target: T2, surface human BDCA2 (Homo sapiens, UniProt Q8WTT0)
T2 construct: stably transfected DG44 CHO cells co-expressing full-length BDCA2 and FcεRIγcDNAs (human or cynomolgus monkey); expressed in transfected cells
T2 sequence (Q8WTT0 1-213): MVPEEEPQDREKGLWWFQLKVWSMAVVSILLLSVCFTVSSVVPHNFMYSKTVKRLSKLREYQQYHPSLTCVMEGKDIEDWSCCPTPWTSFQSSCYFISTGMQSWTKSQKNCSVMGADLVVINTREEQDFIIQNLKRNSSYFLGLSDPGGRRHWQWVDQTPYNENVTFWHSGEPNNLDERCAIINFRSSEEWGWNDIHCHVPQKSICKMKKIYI
T2 sequence (P30273 19-86 partner): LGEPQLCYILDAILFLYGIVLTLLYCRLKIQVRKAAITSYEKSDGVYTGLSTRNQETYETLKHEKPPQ
Assay: Direct binding dilution titration FACS on surface human BDCA2
Conditions: transfected cells co-expressing BDCA2 and FcεRIγ
Procedure: Expression vectors (ch24F4 heavy chain vectors pYL670 or pYL672 and ch24F4 light chain vector pYL671) were co-transfected into 293-EBNA cells and transfected cells were tested for antibody secretion and specificity (empty vector- and a molecularly cloned irrelevant mAb vector-transfected cells served as controls). […] Direct FACS binding to surface human BDCA2 confirmed the specificity of ch24F4. The EC50 binding of both variants of ch24F4 was equivalent to that of the murine 24F4 mAb by direct binding to surface expressed human BDCA2 by dilution titration FACS assay. Stable CHO cell lines secreting ch24F4-huIgG1, kappa mAb and agly ch24F4-huIgG4/G1 hybrid kappa mAb were produced by co-transfection with pYL672/pYL671 and pYL670/pYL671, respectively.
Site-directed mutagenesis was performed using Agilent's QuikChange II mutagenesis kit following the manufacturer's recommended protocol. The C95S variant was constructed using the mutagenic primer 5′ GCAACCTATTACTGTCAACAAAGTAATGAGGATCCTCGGAC 3′ (SEQ ID NO: 38) and its reverse complement, which introduced a new HincII site, producing plasmid pEAG2678. The C95T variant was constructed using the mutagenic primer 5′ CAACCTATTACTGTCAGCAAACTAATGAAGATCCTCGGACGTTCG 3′ (SEQ ID NO: 39) and its reverse complement, which removed a BamHI site, producing plasmid pEAG2679. […]

Molecule	direct binding to surface human BDCA2, in words
H5/L1: hu24F4 variant, heavy chain version H5 (SEQ ID NO: 49), light chain version L1 (antibody, V domains shown) VH: DVQLVQSGGGLVKPGGSLRLSCAASGFTFSTYTMSWVRQAPGKGLEWVATISPGDSFGYYYPDSVQGRFTISRDNAKNSLYLQMNRLRAEDTAVYYCTRDIYYNYGAWFAYWGRGTLVTVSS VL: DIQLTQSPSSLSASVGDRVTITCKASQSVDYDGDSYMNWYQQKPGKAPKLLIYAASTLESGVPSRFSGSGSGTDFTLTISSLQPEDFATYYCQQSNEDPRTFGQGTKVEIK	“best” variants
